Measured values published in PMC8568920 (2021).

Target: biotinylated lysocin E derivative, natural type (biotin (position not given); fatty acid chain moiety)
Experiment: BLI

Kd: 5.6 µM
B1: recombinant human apolipoprotein A-I ∆NM variant (domain or fragment)
chain: PVTQEFWDNLEKETEGLRQEMSKDLEEVKAKVQPYLDDFQKKWQEEMELYRQKVEPLRAELQEGARQKLHELQEKLSPLGTHLAPYSDELRQRLAARLEALKENGGARLAEYHAKATEHLSTLSEKAKPALEDLRQGLLPVLESFKVSFLSALEEYTKKLNTQ
